Reference: patent publication US12709742B2, “RNA expression modulating or editing method via regulation of Cas13 protein” (Korea Advanced Institute of Science and Technology, priority 2021, dated 2026)

Test system: Firefly luciferase target RNA
Test: Dual luciferase reporter assay of paCas13 fragments under blue light stimulation
Type: cell-based
Details: 488 nm blue light for 24 hours
Experimental: Specifically, to evaluate the changes in protein levels, HEK293T cells (ATCC) were co-transfected with 10 ng of a double luciferase reporter plasmid (Promega), 75 ng of each inducible Cas13 fragment expressing the plasmid, and 100 ng of a crRNA expression plasmid. 16 hours prior to transfection, the cells were placed in a 96-well plate (Corning) and allowed to grow until reaching 80% confluency. On the next day, 10 μL of Opti-MEM and 10 μL of Opti-MEM containing 0.6 μL of lipofectamine LTX and 0.26 μL of PLUS reagent and all transfected DNA plasmids were mixed, and a total of 20 μL of Opti-MEM I reducing serum medium (ThermoFisher) was added to each well. All solutions were incubated for 5 minutes before slowly added to the cells. […] The experiment was performed in triplicate. The decrease in the target RNA, the Firefly transcript, was confirmed by comparing the expression value at the protein level of the control group Renilla.
Luciferase reporter assay was performed to confirm whether the Cas13b protein was activated by light stimulation when the construct designed in Example 3 was used.
To test the light-inducible RNA targeting of paCas13, the target RNA knockdown activity of paCas13 fragments was evaluated using a dual luciferase system under the blue light stimulation for 24 hours with an LED plate emitting 488 nm of blue light (FIG. 8). […]

B1: nMagH: paCas13 fragments fused with pMag and nMagH (nMag with M135I and M165I mutations) (protein)
chain: HTLYAPGGYDIMGYLDQIGNRPNPQVELGPVDTSCALILCDLKQKDTPIVYASEAFLYMTGYSNAEVLGRNCRFLQSPDGMVKPKSTRKYVDSNTINTIRKAIDRNAEVQVEVVNFKKNGQRFVNFLTIIPVRDETGEYRYSMGFQCETE
modifications: nMagHigh1 amino acid sequence
Target mRNA cleavage with pMag in combination with dimerization partner: Efficient target mRNA cleavage was seen
